These results are taken from publication PMC9065602, “Characterization of Polymer Degrading Lipases, LIP1 and LIP2 From Pseudomonas chlororaphis PA23” (Frontiers in Bioengineering and Biotechnology, 2022).

The subject of the series is CCCCCCCC(=O)Oc1ccc([N+](=O)[O-])cc1. The experiment in a line: purified protein. The format is biochemical, Pseudomonas chlororaphis. To be noted: 0.1-3.0 mM substrate, optimal conditions (pH 8.0, 40 °C).

By Km is commonly meant the substrate concentration at which the rate is half of its maximum.

Take LIP2 (Pseudomonas chlororaphis): the Km turned out to be 286 µM.
